In assay [1] the target is HIV-1 Env of isolate ZM249 (HIV-1). Kind of assay: cell-based or functional assay.
The target in assay [2] is HIV-1 Env of isolate CAAN (HIV-1). Put plainly: cell-based or functional assay.
The target in assay [3] is HIV-1 Env of isolate CAP45 (HIV-1). Kind of assay: cell-based or functional assay.
The target of assay [4] is HIV-1 Env of isolate 92RW020 (HIV-1). Put plainly: cell-based or functional assay.
Assay [5] concerns the target HIV-1 envelope glycoprotein (Env) of isolate MGRM-Chronic-B-004, on pseudovirus (HIV-1). Put plainly: cell-based or functional assay.
The target of assay [6] is HIV-1 Env of isolate MGRM-C-025 (subtype C), on pseudovirus (HIV-1). Put plainly: cell-based or functional assay.
Assay [7] concerns the target HIV-1 Env of isolate 92RW021 (HIV-1). Put plainly: cell-based or functional assay.
Assay [8] has as its target HIV-1 MGRM-D-018 Env (pseudovirus) (HIV-1). Kind of assay: cell-based or functional assay.
For assay [9], the target named is HIV-1 92UG024 Env (clade D pseudovirus) (HIV-1). Put plainly: cell-based or functional assay.
For assay [10], the target named is HIV-1 93UG077 Env (clade A pseudovirus) (HIV-1). Kind of assay: cell-based or functional assay.
Assay [11] has as its target HIV-1 MGRM-A-010 Env (clade A pseudovirus) (HIV-1). Put plainly: cell-based or functional assay.
Assay [12] concerns the target HIV-1 Env of isolate MGRM-C-028 (clade C) (HIV-1). Put plainly: cell-based or functional assay.
Assay [13] concerns the target HIV-1 Env of isolate APV6 (clade B) (HIV-1). Put plainly: cell-based or functional assay.
The target of assay [14] is HIV-1 Env of isolate CMU02 (clade AE) (HIV-1). Kind of assay: cell-based or functional assay.
Assay [15] concerns the target HIV-1 Env of isolate APV17 (clade B) (HIV-1). Kind of assay: cell-based or functional assay.
Assay [16] deals with HIV-1 Env of isolate MGRM-A-010 (clade A) (HIV-1). Put plainly: cell-based or functional assay.
In assay [17] the target is JR-FL gp120 ΔV1/ΔV2 (HIV-1 (isolate JR-FL)). Put plainly: ELISA on coated gp120; EC50 by nonlinear regression. On the technique in general: An ELISA detects its analyte on a solid surface through an enzyme-linked reagent.
The target in assay [18] is WT JR-FL gp120 (HIV-1 (isolate JR-FL)). The assay is described as above.
Assay [19] addresses HIV-1 JR-CSF Env R315A (HIV-1 isolate JR-CSF) (UniProt P20871). Put plainly: cell-based or functional assay.
Assay [20] concerns the target HIV-1 Env of isolate 92BR020 (HIV-1). Kind of assay: cell-based or functional assay.
The target in assay [21] is HIV-1 JR-CSF Env I424A (HIV-1 (isolate JR-CSF)) (UniProt P20871). Kind of assay: cell-based or functional assay.
For assay [22], the target named is HIV-1 JR-CSF Env N396A (HIV-1 (isolate JR-CSF)) (UniProt P20871). Put plainly: cell-based or functional assay.
The target in assay [23] is HIV-1 JR-CSF Env N276A (HIV-1 JR-CSF) (UniProt P20871). Kind of assay: cell-based or functional assay.
Assay [24] addresses HIV-1 JR-CSF Env R304A (HIV-1 JR-CSF) (UniProt P20871). Kind of assay: cell-based or functional assay.
The target of assay [25] is HIV-1 JR-CSF Env K305A (HIV-1 JR-CSF) (UniProt P20871). Kind of assay: cell-based or functional assay.
In assay [26] the target is HIV-1 JR-CSF Env F317A (HIV-1 isolate JR-CSF) (UniProt P20871). Put plainly: cell-based or functional assay.
Assay [27] deals with HIV-1 JR-CSF Env N339A (HIV-1 isolate JR-CSF) (UniProt P20871). Kind of assay: cell-based or functional assay.
Assay [28] has as its target HIV-1 envelope glycoprotein (Env) of isolate MGRM-Chronic-B-011, on pseudovirus (HIV-1). Kind of assay: cell-based or functional assay.
Assay [29] deals with HIV-1 Env of isolate MGRM-F1-022 (clade F), on pseudovirus (HIV-1). Put plainly: cell-based or functional assay.
The target of assay [30] is HIV-1 Env of isolate 93UG077 (pseudovirus) (HIV-1). Put plainly: cell-based or functional assay.
The target of assay [31] is HIV-1 Env of isolate MG RM-A-008 (pseudovirus) (HIV-1). Put plainly: cell-based or functional assay.
In assay [32] the target is HIV-1 Env of isolate CMU02 (pseudovirus) (HIV-1). Put plainly: cell-based or functional assay.
Assay [33] has as its target HIV-1 Env of isolate MGRM-D-008 (subtype D), on pseudovirus (HIV-1). Put plainly: cell-based or functional assay.
Assay [34] addresses HIV-1 Env of isolate MGRM-AE-004 (pseudovirus) (HIV-1). Kind of assay: cell-based or functional assay.
Assay [35] deals with HIV-1 Env of isolate 94UG103 (pseudovirus) (HIV-1). Kind of assay: cell-based or functional assay.
For assay [36], the target named is HIV-1 Env of isolate MG RM-A-010 (pseudovirus) (HIV-1). Kind of assay: cell-based or functional assay.
In assay [37] the target is HIV-1 Env of isolate MG RM-A-011 (pseudovirus) (HIV-1). Kind of assay: cell-based or functional assay.
Assay [38] has as its target HIV-1 Env of isolate APV_17 (HIV-1). Put plainly: cell-based or functional assay.
Assay [39] concerns the target HIV-1 Env of isolate MG RM-A-007 (pseudovirus) (HIV-1). Put plainly: cell-based or functional assay.

As a reminder, the IC50 is the concentration at which inhibition is half-maximal. A low value points to inhibition by little substance. The IC80 is the concentration needed for an effect of 80%. Low readings indicate greater potency, high ones weaker potency. As a reminder, the IC90 is the concentration needed for an effect of 90%. As a reminder, the IC95 is the point of the concentration-response curve where the effect stands at 95%. In general, EC50 refers to the concentration at which the effect is half-maximal.

Chain of 1443_C16 (PG16) (TCN-116) (antibody) (VH): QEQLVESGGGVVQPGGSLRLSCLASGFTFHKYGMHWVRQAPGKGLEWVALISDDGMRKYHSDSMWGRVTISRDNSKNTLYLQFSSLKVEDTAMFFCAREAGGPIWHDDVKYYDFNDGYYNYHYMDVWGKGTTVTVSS
Chain of 1443_C16 (PG16) (TCN-116) (antibody) (VL): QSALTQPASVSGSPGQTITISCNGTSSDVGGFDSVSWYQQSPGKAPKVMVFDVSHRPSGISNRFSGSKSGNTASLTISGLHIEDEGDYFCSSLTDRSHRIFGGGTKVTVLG

As to 1443_C16 (PG16) (TCN-116) (antibody), the IC50, pseudovirus neutralization (TZM-bl) is less than 0.01 µg/mL in [1], 6.37 µg/mL in assay [2] and less than 0.01 µg/mL in [3].

1496_C09 (PG9) (TCN-109) (antibody): the IC50 in assay [4] turned out to be 0.141 µg/mL; in assay [7], 0.027 µg/mL. This substance registered an IC50, pseudovirus neutralization in [5] of 0.533 µg/mL. This substance also registered an IC50 (µg/mL), pseudovirus neutralization in [6] of 0.148 µg/mL.

In the case of 4838_L06 (PGT-121) (antibody), in assay [8], the neutralization IC80 amounted to 0.0231 µg/mL, the neutralization IC90 was determined as 0.0414 µg/mL and the neutralization IC95 came to 0.0715 µg/mL.

Consider 4877_D15 (PGT-122) (antibody), for which, in assay [9], the Neutralization by PGT-122, IC50 is more than 10 µg/mL; the Neutralization by PGT-122, IC80 was more than 10 µg/mL; the Neutralization by PGT-122, IC90 was more than 10 µg/mL; the Neutralization by PGT-122, IC95 was more than 10 µg/mL. In assay [10], this substance showed a Neutralization by PGT-122, IC50 of 0.191 µg/mL; a Neutralization by PGT-122, IC80 of 0.931 µg/mL; a Neutralization by PGT-122, IC90 of 2.1 µg/mL; a Neutralization by PGT-122, IC95 of 3.88 µg/mL. In assay [11], this substance displayed a Neutralization by PGT-122, IC50 of 1.68 µg/mL; a Neutralization by PGT-122, IC80 of more than 10 µg/mL; a Neutralization by PGT-122, IC90 of more than 10 µg/mL; a Neutralization by PGT-122, IC95 of more than 10 µg/mL.

Consider 5141_B17 (PGT-126) (antibody), for which, in assay [8], the IC50 turned out to be 0.0093 µg/mL, the IC80 was found to be 0.0391 µg/mL, the 90% effect concentration (IC90) is 0.0918 µg/mL and the IC95 was found to be 0.205 µg/mL.

In the case of 5147_N06 (PGT-130) (antibody), the neutralization IC50 in [12] was more than 10 µg/mL; in assay [13] it was more than 10 µg/mL; in assay [14] it was more than 10 µg/mL; in [15] it was more than 10 µg/mL; in [16] it was 0.0054 µg/mL. Besides, the neutralization IC80 is more than 10 µg/mL in assay [12]; more than 10 µg/mL in assay [13]; more than 10 µg/mL in assay [14]; more than 10 µg/mL in [15]; 0.0251 µg/mL in assay [16]. The neutralization IC90 was more than 10 µg/mL in assay [12]; more than 10 µg/mL in assay [13]; more than 10 µg/mL in assay [14]; more than 10 µg/mL in assay [15]; 0.0643 µg/mL in assay [16]. For the same substance, the neutralization IC95 in assay [12] was more than 10 µg/mL; in assay [13] it was more than 10 µg/mL; in [14] it was more than 10 µg/mL; in assay [15], more than 10 µg/mL; in [16], 0.164 µg/mL.

On to PGT-121 (antibody), for which the EC50 in assay [17] and in assay [18] was 0.2 µg/mL each time. For the same substance, the Fold IC50 increase relative to wild-type in assay [19] came out at 0.9 fold; in assay [21], 0.9 fold; in assay [22], 1.3 fold; in [23], 0.8 fold; in [24] it was 1.7 fold; in [25], 1.9 fold. Moreover, the Fold IC50 increase relative to wild-type in assay [26] was determined as 1.7 fold; in [27], 0.5 fold. The substance also had a Primary Neutralization Index (B cell culture well 4838 L06) in assay [20] of 4.9. The substance also came in with a Primary Neutralization Index (B cell culture well 4873 E03) in [20] of 3.6.

Regarding PGT-122 (antibody), the EC50 in assay [17] and in assay [18] was 0.3 µg/mL in each case. Also, the Fold IC50 increase relative to wild-type came to 0.5 fold in assay [19]; 0.8 fold in [21]; 1.1 fold in assay [22]; 1.4 fold in assay [23]; 0.7 fold in assay [24]; 3.4 fold in assay [26]. Further, the Fold IC50 increase relative to wild-type in [27] was 0.4 fold.

Regarding PGV04 (antibody), the IC50, pseudovirus neutralization in assay [28] came out at 0.497 µg/mL; in [5], 0.047 µg/mL. Also, the values for the IC50 in assay [4] and in assay [7] were 0.055 µg/mL and 0.038 µg/mL, respectively. In addition, the IC50 (µg/mL), single-round pseudovirus neutralization in assay [29] was found to be 0.072 µg/mL. In [6], this substance registered an IC50 (µg/mL), pseudovirus neutralization of more than 50 µg/mL.

VRC01 (antibody): the IC50 (µg/mL), pseudovirus neutralization in assay [30] turned out to be 0.097 µg/mL; in assay [31], 0.303 µg/mL; in [32], 0.515 µg/mL; in assay [34] it was 0.187 µg/mL; in [35], 0.285 µg/mL; in [36], 0.325 µg/mL. Further, the IC50 (µg/mL), pseudovirus neutralization in [37] turned out to be 0.273 µg/mL; in assay [39], 12.6 µg/mL. The substance further gave an IC50, pseudovirus neutralization in assay [33] of 0.854 µg/mL. Further, the IC50 is 0.29 µg/mL in assay [20] and 0.477 µg/mL in assay [38].

These data come from US20200024330A1.
